Molecular target: SDDV major capsid protein, Flag-tagged (pFlag-N3-SDDV MCP) (scale drop disease virus (SDDV))

## ADLFRNQFALATWTIQGCANSLAGDIWSL [TM-B polypeptide containing the binding site with SDDV-MCP in mfTfR1]
  mortality of mandarin fish challenged with SDDV pre-incubated with TM-B, against the petB2M control (blocks m2 with m8): 40%

Reference: publication PMC12363161
